Source: article PMC10506485, “Human astrovirus capsid protein releases a membrane lytic peptide upon trypsin maturation” (Journal of Virology, 2023)

Biological target: the molecule itself
Assay: SEC; Superdex-200 or Superdex-75 size exclusion column; 50 mM Tris-HCl pH 8.0, 150 mM NaCl, 1 mM NaN3; self-association judged from the elution profile

| Protein | binding result | stoichiometry N |
| --- | --- | --- |
| HAstV8 VP90^14-782 (domain or fragment, Capsid polyprotein precursor VP90 of human astrovirus serotype 8 (strain Yuc8), residues 14-782, N-terminal truncation; The results name the vector pET28a, the methods pET-SUMOc with an N-terminal 6xHis-SUMO tag; also called aa14–782; source: E. coli (Rosetta 2 (DE3) or BL21), purified (HisTrap, Superdex size exclusion)) NNNGRSRSKSRARSQSRGRGRSVKITVNSHNKGRRQNGRNKYQSNQRVRKIVNKQLRKQGVTGPKPAICQTATATLGTIGSNTTGATEIEACILLNPVLVKDATGSTQFGPVQALGAQYSMWKLKYLNVRLTSMVGASAVNGTVVRISLNPTSTPSSTSWSGLGARKHLDVTVGKNAVFKLKPSDLGGPRDGWWLTNTNDNASDTLGPSIEIHTLGQTMSSYQNTQFTGGLFLVELSSAWCFTGYAANPNLVNLVKSTDKSVNVTFEGSAGTPLIMNVPEHSHFARTAVEHSSLSTSLSRAGGESSSDTVWQVLNTAVSAAELVTPPPFNWLVKGGWWFVKLIAGRARTGARRFYVYLSYQDALSNKPALCTGGVPASARQSNPVRTTLQFTQMNQPSLGHGATPMTFGRSIPEPGEQFRVLLTVGPPMAPNTANSQNWVNKTIVPPENQYTVKIGIDLEHYTTMQGFTPVESVSWYTADFQPSDEPSPIPGLYARVNNTKKADVYGVQQFKSSHTNNRHQITSVFLVRVTTSFQVINYTSYFIRGAESGSNVSNLKIRDQTYHTPLQFTQGKWYLLTSTVMHDGPTSSGWVWMNQELTNNIAYRVDPGMMYLITPPPAASQLYFELHTVLPQARSEEPETYVDAPLPEEPPIEEEETDSDFESTEDENDEVDRFDLHPSSESDDDDVENDRATLLSTLLNQGISVERATRITNGAFPTRAARVRRSVYNDLLVSGLSPGAAWSHACEQARRAGDNHDLQLSGSRDHAE | binds | – |
| HAstV8 VP90^28-782 (domain or fragment, Capsid polyprotein precursor VP90 of human astrovirus serotype 8 (strain Yuc8), residues 28-782, N-terminal truncation; The results name the vector pET28a, the methods pET-SUMOc with an N-terminal 6xHis-SUMO tag; Forms rod-shaped assemblies of about 20 nm diameter and variable length; also called aa28–782; source: E. coli (Rosetta 2 (DE3) or BL21), purified (HisTrap, Superdex-200 size exclusion)) QSRGRGRSVKITVNSHNKGRRQNGRNKYQSNQRVRKIVNKQLRKQGVTGPKPAICQTATATLGTIGSNTTGATEIEACILLNPVLVKDATGSTQFGPVQALGAQYSMWKLKYLNVRLTSMVGASAVNGTVVRISLNPTSTPSSTSWSGLGARKHLDVTVGKNAVFKLKPSDLGGPRDGWWLTNTNDNASDTLGPSIEIHTLGQTMSSYQNTQFTGGLFLVELSSAWCFTGYAANPNLVNLVKSTDKSVNVTFEGSAGTPLIMNVPEHSHFARTAVEHSSLSTSLSRAGGESSSDTVWQVLNTAVSAAELVTPPPFNWLVKGGWWFVKLIAGRARTGARRFYVYLSYQDALSNKPALCTGGVPASARQSNPVRTTLQFTQMNQPSLGHGATPMTFGRSIPEPGEQFRVLLTVGPPMAPNTANSQNWVNKTIVPPENQYTVKIGIDLEHYTTMQGFTPVESVSWYTADFQPSDEPSPIPGLYARVNNTKKADVYGVQQFKSSHTNNRHQITSVFLVRVTTSFQVINYTSYFIRGAESGSNVSNLKIRDQTYHTPLQFTQGKWYLLTSTVMHDGPTSSGWVWMNQELTNNIAYRVDPGMMYLITPPPAASQLYFELHTVLPQARSEEPETYVDAPLPEEPPIEEEETDSDFESTEDENDEVDRFDLHPSSESDDDDVENDRATLLSTLLNQGISVERATRITNGAFPTRAARVRRSVYNDLLVSGLSPGAAWSHACEQARRAGDNHDLQLSGSRDHAE | binds | – |
| HAstV8 VP90^72-782 (domain or fragment, Capsid polyprotein precursor VP90 of human astrovirus serotype 8 (strain Yuc8), residues 72-782, N-terminal truncation; The results name the vector pET28a, the methods pET-SUMOc with an N-terminal 6xHis-SUMO tag; also called aa72–782; source: E. coli (Rosetta 2 (DE3) or BL21), purified (HisTrap, Superdex size exclusion)) QGVTGPKPAICQTATATLGTIGSNTTGATEIEACILLNPVLVKDATGSTQFGPVQALGAQYSMWKLKYLNVRLTSMVGASAVNGTVVRISLNPTSTPSSTSWSGLGARKHLDVTVGKNAVFKLKPSDLGGPRDGWWLTNTNDNASDTLGPSIEIHTLGQTMSSYQNTQFTGGLFLVELSSAWCFTGYAANPNLVNLVKSTDKSVNVTFEGSAGTPLIMNVPEHSHFARTAVEHSSLSTSLSRAGGESSSDTVWQVLNTAVSAAELVTPPPFNWLVKGGWWFVKLIAGRARTGARRFYVYLSYQDALSNKPALCTGGVPASARQSNPVRTTLQFTQMNQPSLGHGATPMTFGRSIPEPGEQFRVLLTVGPPMAPNTANSQNWVNKTIVPPENQYTVKIGIDLEHYTTMQGFTPVESVSWYTADFQPSDEPSPIPGLYARVNNTKKADVYGVQQFKSSHTNNRHQITSVFLVRVTTSFQVINYTSYFIRGAESGSNVSNLKIRDQTYHTPLQFTQGKWYLLTSTVMHDGPTSSGWVWMNQELTNNIAYRVDPGMMYLITPPPAASQLYFELHTVLPQARSEEPETYVDAPLPEEPPIEEEETDSDFESTEDENDEVDRFDLHPSSESDDDDVENDRATLLSTLLNQGISVERATRITNGAFPTRAARVRRSVYNDLLVSGLSPGAAWSHACEQARRAGDNHDLQLSGSRDHAE | – | 2 |
